Results as given in publication PMC11574045, “A cofactor-induced repressive type of transcription factor condensation can be induced by synthetic peptides to suppress tumorigenesis” (The EMBO Journal, 2024).

B1: MYNN (protein, UniProt Q9NPC7 1-610, looked up)
Myoneurin: MQYSHHCEHLLERLNKQREAGFLCDCTIVIGEFQFKAHRNVLASFSEYFGAIYRSTSENNVFLDQSQVKADGFQKLLEFIYTGTLNLDSWNVKEIHQAADYLKVEEVVTKCKIKMEDFAFIANPSSTEISSITGNIELNQQTCLLTLRDYNNREKSEVSTDLIQANPKQGALAKKSSQTKKKKKAFNSPKTGQNKTVQYPSDILENASVELFLDANKLPTPVVEQVAQINDNSELELTSVVENTFPAQDIVHTVTVKRKRGKSQPNCALKEHSMSNIASVKSPYEAENSGEELDQRYSKAKPMCNTCGKVFSEASSLRRHMRIHKGVKPYVCHLCGKAFTQCNQLKTHVRTHTGEKPYKCELCDKGFAQKCQLVFHSRMHHGEEKPYKCDVCNLQFATSSNLKIHARKHSGEKPYVCDRCGQRFAQASTLTYHVRRHTGEKPYVCDTCGKAFAVSSSLITHSRKHTGEKPYICGICGKSFISSGELNKHFRSHTGERPFICELCGNSYTDIKNLKKHKTKVHSGADKTLDSSAEDHTLSEQDSIQKSPLSETMDVKPSDMTLPLALPLGTEDHHMLLPVTDTQSPTSDTLLRSTVNGYSEPQLIFLQQLY
B2: MYCBP (protein, UniProt Q99417 2-103, looked up)
c-Myc-binding protein: AHYKAADSKREQFRRYLEKSGVLDTLTKVLVALYEEPEKPNSALDFLKHHLGAATPENPEIELLRLELAEMKEKYEAIVEENKKLKAKLAQYEPPQEEKRAE
B3: ATF1 (protein, UniProt P18846 1-271, looked up)
Cyclic AMP-dependent …: MEDSHKSTTSETAPQPGSAVQGAHISHIAQQVSSLSESEESQDSSDSIGSSQKAHGILARRPSYRKILKDLSSEDTRGRKGDGENSGVSAAVTSMSVPTPIYQTSSGQYIAIAPNGALQLASPGTDGVQGLQTLTMTNSGSTQQGTTILQYAQTSDGQQILVPSNQVVVQTASGDMQTYQIRTTPSATSLPQTVVMTSPVTLTSQTTKTDDPQLKREIRLMKNREAARECRRKKKEYVKCLENRVAVLENQNKTLIEELKTLKDLYSNKSV
B4: MLR2 (protein, UniProt Q96JN0 1-433, looked up)
Ligand-dependent corepressor: MQRMIQQFAAEYTSKNSSTQDPSQPNSTKNQSLPKASPVTTSPTAATTQNPVLSKLLMADQDSPLDLTVRKSQSEPSEQDGVLDLSTKKSPCAGSTSLSHSPGCSSTQGNGRPGRPSQYRPDGLRSGDGVPPRSLQDGTREGFGHSTSLKVPLARSLQISEELLSRNQLSTAASLGPSGLQNHGQHLILSREASWAKPHYEFNLSRMKFRGNGALSNISDLPFLAENSAFPKMALQAKQDGKKDVSHSSPVDLKIPQVRGMDLSWESRTGDQYSYSSLVMGSQTESALSKKLRAILPKQSRKSMLDAGPDSWGSDAEQSTSGQPYPTSDQEGDPGSKQPRKKRGRYRQYNSEILEEAISVVMSGKMSVSKAQSIYGIPHSTLEYKVKERLGTLKNPPKKKMKLMRSEGPDVSVKIELDPQGEAAQSANESKNE
B5: MYOG (protein, UniProt P15173 1-224, looked up)
Myogenin: MELYETSPYFYQEPRFYDGENYLPVHLQGFEPPGYERTELTLSPEAPGPLEDKGLGTPEHCPGQCLPWACKVCKRKSVSVDRRRAATLREKRRLKKVNEAFEALKRSTLLNPNQRLPKVEILRSAIQYIERLQALLSSLNQEERDLRYRGGGGPQPGVPSECSSHSASCSPEWGSALEFSANPGDHLLTADPTDAHNLHSLTSIVDSITVEDVSVAFPDETMPN
B6: MLLT10 (protein, UniProt P55197 1-1068, looked up)
Protein AF-10: MVSSDRPVSLEDEVSHSMKEMIGGCCVCSDERGWAENPLVYCDGHGCSVAVHQACYGIVQVPTGPWFCRKCESQERAARVRCELCPHKDGALKRTDNGGWAHVVCALYIPEVQFANVSTMEPIVLQSVPHDRYNKTCYICDEQGRESKAATGACMTCNKHGCRQAFHVTCAQFAGLLCEEEGNGADNVQYCGYCKYHFSKLKKSKRGSNRSYDQSLSDSSSHSQDKHHEKEKKKYKEKDKHKQKHKKQPEPSPALVPSLTVTTEKTYTSTSNNSISGSLKRLEDTTARFTNANFQEVSAHTSSGKDVSETRGSEGKGKKSSAHSSGQRGRKPGGGRNPGTTVSAASPFPQGSFSGTPGSVKSSSGSSVQSPQDFLSFTDSDLRNDSYSHSQQSSATKDVHKGESGSQEGGVNSFSTLIGLPSTSAVTSQPKSFENSPGDLGNSSLPTAGYKRAQTSGIEEETVKEKKRKGNKQSKHGPGRPKGNKNQENVSHLSVSSASPTSSVASAAGSITSSSLQKSPTLLRNGSLQSLSVGSSPVGSEISMQYRHDGACPTTTFSELLNAIHNGIYNSNDVAVSFPNVVSGSGSSTPVSSSHLPQQSSGHLQQVGALSPSAVSSAAPAVATTQANTLSGSSLSQAPSHMYGNRSNSSMAALIAQSENNQTDQDLGDNSRNLVGRGSSPRGSLSPRSPVSSLQIRYDQPGNSSLENLPPVAASIEQLLERQWSEGQQFLLEQGTPSDILGMLKSLHQLQVENRRLEEQIKNLTAKKERLQLLNAQLSVPFPTITANPSPSHQIHTFSAQTAPTTDSLNSSKSPHIGNSFLPDNSLPVLNQDLTSSGQSTSSSSALSTPPPAGQSPAQQGSGVSGVQQVNGVTVGALASGMQPVTSTIPAVSAVGGIIGALPGNQLAINGIVGALNGVMQTPVTMSQNPTPLTHTTVPPNATHPMPATLTNSASGLGLLSDQQRQILIHQQQFQQLLNSQQLTPEQHQAFLYQLMQHHHQQHHQPELQQLQIPGPTQIPINNLLAGTQAPPLHTATTNPFLTIHGDNASQKVARLSDKTGPVAQEKS
B7: MXD4 (protein, UniProt Q14582 1-209, looked up)
Max dimerization protein 4: MELNSLLILLEAAEYLERRDREAEHGYASVLPFDGDFAREKTKAAGLVRKAPNNRSSHNELEKHRRAKLRLYLEQLKQLVPLGPDSTRHTTLSLLKRAKVHIKKLEEQDRRALSIKEQLQQEHRFLKRRLEQLSVQSVERVRTDSTGSAVSTDDSEQEVDIEGMEFGPGELDSVGSSSDADDHYSLQSGTGGDSGFGPHCRRLGRPALS
B8: MLXIP (protein, UniProt Q9HAP2 2-919, looked up)
MLX-interacting protein: AADVFMCSPRRPRSRGRQVLLKPQVSEDDDDSDTDEPSPPPASGAATPARAHASAAPPPPRAGPGREEPPRRQQIIHSGHFMVSSPHREHPPKKGYDFDTVNKQTCQTYSFGKTSSCHLSIDASLTKLFECMTLAYSGKLVSPKWKNFKGLKLQWRDKIRLNNAIWRAWYMQYLEKRKNPVCHFVTPLDGSVDVDEHRRPEAITTEGKYWKSRIEIVIREYHKWRTYFKKRLQQHKDEDLSSLVQDDDMLYWHKHGDGWKTPVPMEEDPLLDTDMLMSEFSDTLFSTLSSHQPVAWPNPREIAHLGNADMIQPGLIPLQPNLDFMDTFEPFQDLFSSSRSIFGSMLPASASAPVPDPNNPPAQESILPTTALPTVSLPDSLIAPPTAPSLAHMDEQGCEHTSRTEDPFIQPTDFGPSEPPLSVPQPFLPVFTMPLLSPSPAPPPISPVLPLVPPPATALNPPAPPTFHQPQKFAGVNKAPSVITHTASATLTHDAPATTFSQSQGLVITTHHPAPSAAPCGLALSPVTRPPQPRLTFVHPKPVSLTGGRPKQPHKIVPAPKPEPVSLVLKNARIAPAAFSGQPQAVIMTSGPLKREGMLASTVSQSNVVIAPAAIARAPGVPEFHSSILVTDLGHGTSSPPAPVSRLFPSTAQDPLGKGEQVPLHGGSPQVTVTGPSRDCPNSGQASPCASEQSPSPQSPQNNCSGKSDPKNVAALKNRQMKHISAEQKRRFNIKMCFDMLNSLISNNSKLTSHAITLQKTVEYITKLQQERGQMQEEARRLREEIEELNATIISCQQLLPATGVPVTRRQFDHMKDMFDEYVKTRTLQNWKFWIFSIIIKPLFESFKGMVSTSSLEELHRTALSWLDQHCSLPILRPMVLSTLRQLSTSTSILTDPAQLPEQASKAVTRIGKRLGES
B9: MSGN1 (protein, UniProt A6NI15 1-193, looked up)
Mesogenin-1: MDNLRETFLSLEDGLGSSDSPGLLSSWDWKDRAGPFELNQASPSQSLSPAPSLESYSSSPCPAVAGLPCEHGGASSGGSEGCSVGGASGLVEVDYNMLAFQPTHLQGGGGPKAQKGTKVRMSVQRRRKASEREKLRMRTLADALHTLRNYLPPVYSQRGQPLTKIQTLKYTIKYIGELTDLLNRGREPRAQSA
B10: MTDH (protein, UniProt Q86UE4 1-582, looked up)
Protein LYRIC: MAARSWQDELAQQAEEGSARLREMLSVGLGFLRTELGLDLGLEPKRYPGWVILVGTGALGLLLLFLLGYGWAAACAGARKKRRSPPRKREEAAAVPAAAPDDLALLKNLRSEEQKKKNRKKLSEKPKPNGRTVEVAEGEAVRTPQSVTAKQPPEIDKKNEKSKKNKKKSKSDAKAVQNSSRHDGKEVDEGAWETKISHREKRQQRKRDKVLTDSGSLDSTIPGIENTITVTTEQLTTASFPVGSKKNKGDSHLNVQVSNFKSGKGDSTLQVSSGLNENLTVNGGGWNEKSVKLSSQISAGEEKWNSVSPASAGKRKTEPSAWSQDTGDANTNGKDWGRSWSDRSIFSGIGSTAEPVSQSTTSDYQWDVSRNQPYIDDEWSGLNGLSSADPNSDWNAPAEEWGNWVDEERASLLKSQEPIPDDQKVSDDDKEKGEGALPTGKSKKKKKKKKKQGEDNSTAQDTEELEKEIREDLPVNTSKTRPKQEKAFSLKTISTSDPAEVLVKNSQPIKTLPPATSTEPSVILSKSDSDKSSSQVPPILQETDKSKSNTKQNSVPPSQTKSETSWESPKQIKKKKKARRET
B11: MUSCLIN (protein, UniProt P61366 28-133, looked up)
Osteocrin: VDVTTTEAFDSGVIDVQSTPTVREEKSATDLTAKLLLLDELVSLENDVIETKKKRSFSGFGSPLDRLSAGSVDHKGKQRKVVDHPKRRFGIPMDRIGRNRLSNSRG
B12: MNAT1 (protein, UniProt P51948 1-309, looked up)
CDK-activating kinase …: MDDQGCPRCKTTKYRNPSLKLMVNVCGHTLCESCVDLLFVRGAGNCPECGTPLRKSNFRVQLFEDPTVDKEVEIRKKVLKIYNKREEDFPSLREYNDFLEEVEEIVFNLTNNVDLDNTKKKMEIYQKENKDVIQKNKLKLTREQEELEEALEVERQENEQRRLFIQKEEQLQQILKRKNKQAFLDELESSDLPVALLLAQHKDRSTQLEMQLEKPKPVKPVTFSTGIKMGQHISLAPIHKLEEALYEYQPLQIETYGPHVPELEMLGRLGYLNHVRAASPQDLAGGYTSSLACHRALQDAFSGLFWQPS

Test system: HEK293FT cells transfected with TF library
Assay: Screening of TF condensates based on fluorescent puncta
Type: cell-based
Conditions: Figure 1B numerical data; TF library screen, one value per transcriptional factor
Procedure, shortened: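 Condensate formation is scored as Alexa 488-labelled puncta after Flag- or GAL4-tag immunostaining of fixed HEK293FT cells expressing individual TFs, with a 12 h glucose-free or glucose-containing culture preceding fixation.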

| Molecule | Z score of condensed fraction |
| --- | --- |
| B1 | -0.5885 |
| B2 | -0.1227 |
| B3 | -0.9514 |
| B4 | 0.991 |
| B5 | 0.6311 |
| B6 | 0.7939 |
| B7 | -0.9909 |
| B8 | -0.5131 |
| B9 | 0.1411 |
| B10 | 1.2714 |
| B11 | 0.265 |
| B12 | -0.8808 |
